B1: TPR t1 (parent)
chain: GACCAAUCUGCCCUCAGAGCUCGAGAACAUCUUCGGAUGCAGAGGAGGCAGGCUUCGGUGGCGCGAUAGCGCCAACGUCCUCAACCUCCAAUGCAUCCCACCACAUGAUGAUGCCUGAAGAGCCUUGGUUUUUUG

Variants of: B1
Experiment: polymerase ribozyme fitness, log enrichment relative to wild type (log ratio); higher = more active; in vitro selection for triplet polymerase activity
In short: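 A single round of triplicate in vitro selection, including frozen incubation at −7 °C, was applied to PCR-built, transcribed mutant libraries of each subunit of a heterodimeric triplet polymerase ribozyme. Illumina sequencing of input and output libraries retained genotypes with ≥10 input reads and ≥1 read per output. Fitness is the base-2 logarithm of genotype enrichment divided by wild-type enrichment, from inverse-variance-weighted replicate averages.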

Row | Variant | polymerase ribozyme fitness (log ratio)
1 | A5G U9G U21A C56U A83U | 0.0637
2 | A5G A24G A29C G36C G61A C70U G113A | -5.67
3 | A5C G63U | -1.6
4 | A5G C53A U59A G77U C94U | -0.908
5 | A5G C85G | -2.35
6 | A5C C73G | -0.545
7 | A5U G113A G122A G127C | -3.33
8 | A5G A91U | -1.78
9 | A5C C56G C79A U106A | -2.63
10 | A5C G48U C49A C94A | -2.25
11 | A5U C12U G61A | 0.0113
12 | A5G C12G C34U C72A A95C | -5.52
13 | A5U A50U G61U C88G | -1
14 | A5G G60C G69A | -5.79
15 | A5C G45U | -1.36
16 | A5U U87G U130C | 0.627
17 | A5G A18U A103U C114A G120U | -3.91
18 | A5U U21C C72G C97U | -1.7
19 | A5U A95C | -1.24
20 | A5C U9C G61C | -1.78
21 | A5U U9G G36A G39A U96G | -5.14
22 | A5G U109G C123G U130C | -4.03
23 | A5G A43G G63A U112G | -5.31
24 | A5C G60A C89G G93A A111G | -4.73

Row | Variant | polymerase ribozyme fitness (log ratio)
25 | A5G U32C C70U G93A | -2.13
26 | A5U C12G C89U A103C G117U | -6.59
27 | A5U C8G G19A A43U U54A C70G | -4.96
28 | A5G A50C | -0.262
29 | A5G C28G U78A U96C G110U | -0.656
30 | A5U A27G G44U A118U | -4.64
31 | A5U A41C G77A G110A A121C U130A | -5.22
32 | A5U C11G A91G | -0.601
33 | A5U A6U U9G C28A C34A G60A A121C | -6.95
34 | A5G G69C | -1.4
35 | A5G G69A | -2.1
36 | A5G G69U | 0.484
37 | A5U A18C A111C | -2.56
38 | A5G A83G G110A | -2.14
39 | A5U C72U | -0.719
40 | A5U C56G C70A | -3.29
41 | A5U A18C G113A A118U U131A | -4.6
42 | A5U C13G C89U U92A G120A | -2.77
43 | A5U G17A G69A C79U G113U | -6.54
44 | A5C C73A C123G | 1.28
45 | A5U G19A G52A G57A A95G | -4.08
46 | A5U C40U C88A C101A A121U | 0.119
47 | A5G A74G A118C | -3.85
48 | A5C G45U G93A A121U | -0.00844

Row | Variant | polymerase ribozyme fitness (log ratio)
49 | A5U C62G A100U G120U | -3.08
50 | A5G C20U C53A G58A C99U | -4.64
51 | A5U U9G G48A U78A | -0.963
52 | A5C G113U | -3.73
53 | A5C G113A | -1.96
54 | A5G U106A | 0.687
55 | A5G A111G C123A G128U | -2.99
56 | A5U G39A G60U C70U | -2.4
57 | A5G G10A C15A G23C U32G G61C A90C | -6.73
58 | A5G G48C | -1.69
59 | A5G G35A U78A C101U | -3.77
60 | A5U C49G C53A G71U | -0.914
61 | A5U C8U G93A A105G | -2.84
62 | A5C U7C G69U C85A U92C | -3.85
63 | A5U C28U G69A C124U U133G | -4.96
64 | A5U A46U U81A | -2.98
65 | A5U C64U G117A | -2.55
66 | A5G G48U G61A U81A C82A G127C | -1.97
67 | A5U C12G C49G U81A G127A | -4.64
68 | A5G C49U C70U C72U A121U U133G | 0.312
69 | A5C G44C A46U U106C | -2.77
70 | A5C G69U A90U | -0.485
71 | A5C G17A G127U | -4.89
72 | A5G C8G G113U | -1.74

Row | Variant | polymerase ribozyme fitness (log ratio)
73 | A5U G71A | -1.5
74 | A5G C80A | -2.34
75 | A5U A37G | 0.0705
76 | A5C C82A C101G | -3.77
77 | A5U C8U A46G G60U A66U | -1.11
78 | A5G U9C C124U | 1.89
79 | A5G C34G G69U C82G | -2.92
80 | A5G C8U U38G U106A C114A | -1.52
81 | A5U C89G | -1.4
82 | A5U G39A C73A U78C | -0.828
83 | A5G G36U G48A G61C G122U C123U | -1.93
84 | A5U G42U A46G C72U U78G | -1.17
85 | A5U C49G C70A | -3.06
86 | A5U C49G C70G | -4.62
87 | A5U C64G C124U | -6.6
88 | A5U A84U C97U | -1.7
89 | A5C C97G U112A G122U | -5.96
90 | A5G G10A C72U A91U | -2.06
91 | A5U U14C A18U G45U G71U A121C | -5.73
92 | A5U C11U | -1.46
93 | A5U C11G | -0.477
94 | A5U G110U U130A | -2.41
95 | A5U G44A C56U G117A | -3.69
96 | A5U G52C C62A U112A | -0.939

Row | Variant | polymerase ribozyme fitness (log ratio)
97 | A5G A50U G63A G117A | -6.03
98 | A5U C22A G60U | -6.59
99 | A5U U9A A18U | -2.06
100 | A5G A26C C72U U87A G120U U130A | -3.99
101 | A5U C8G C88U C97U G113C | -1.99
102 | A5C G17A G36U | -5.9
103 | A5U A27G G60U | -4.01
104 | A5U G10U C49G C62G | -4.17
105 | A5G | -0.0211
106 | A5U | -0.135
107 | A5U U14G A83C A111C | -2.47
108 | A5U G71U C72U C101G G117U | -5.12
109 | A5G G57U U78G U106A G110A | -1.97
110 | A5U A6C A26G G44A U54C A84C C94U | -4.49
111 | A5U C8U C11U G61A G113A C124G | -0.703
112 | A5G G45U A46C G61A U78G C115U | -2.84
113 | A5G C13U C70U C94G | -1.73
114 | A5C U7C G57U C99U U112A | -3.19
115 | A5G A46U C56U C73G | -2.61
116 | A5G G45A C49A G69U G93A U130G U131A | -2.39
117 | A5U G69U G110A | -0.583
118 | A5G C13G G51A U112C | -1.39
119 | A5U G60A U78A C97U | -1.08
120 | A5U A46C C73A C98U | -1.57

Row | Variant | polymerase ribozyme fitness (log ratio)
121 | A5G A18G G44C G48C U55C U59G G117U | -5.35
122 | A5U U21A | 0.185
123 | A5G C13U G44U U96G U133A | -2.01
124 | A5U C40U G42C | -2.03
125 | A5C U129A | -0.548
126 | A5U C15U G48A C70A | -3.43
127 | A5U C13U G47A G63U A91U U109C G127C | -6.28
128 | A5G C49G | -1.85
129 | A5U C15A C62A G122A | -4.9
130 | A5U G63A | -0.665
131 | A5U G63U | -1.8
132 | A5C C72A C88A | -1.74
133 | A5G G42U C80A | -5.11
134 | A5U A119G | 0.901
135 | A5U C13G G44C | -2.74
136 | A5C U96A A121C | 0.399
137 | A5G G42U C56G A91C C115G | -3.59
138 | A5U A46U U59C A90U C123A | -2.16
139 | A5U A6G G45C G69U A95U | -2.34
140 | A5U G57A G63U C89G U112C U126A | -3.35
141 | A5C U87C C88A G120U | -0.6
142 | A5G G45U G60A C101G U133G | -3.66
143 | A5G U38G C114A | -2.6
144 | A5U A6C G57U C123U | 0.75

Row | Variant | polymerase ribozyme fitness (log ratio)
145 | A5G C13G G39A G51A U112C | -2.65
146 | A5C U112A | 1.05
147 | A5C U112C | 0.655
148 | A5C U9A C40U G63U G135U | -2.96
149 | A5G A6U G61C A66U | -1.7
150 | A5U A46C C53U U96G C102U | -4.66
151 | A5U U81G G93A U106A C123U | -3.99
152 | A5C U125G | -0.516
153 | A5C U9G C80U A90U U92A | -2.94
154 | A5G A37C G58U G60U U87A | -1.82
155 | A5U G69U | 0.406
156 | A5U C62U C72U | -0.208
157 | A5U C72U C114U | -2.7
158 | A5U U126A | -0.78
159 | A5G G113A | -0.636
160 | A5C G120C | 0.663
161 | A5C G120A | 0.639
162 | A5C U14C G60U A100C G135U | -4.82
163 | A5C C115A | -0.966
164 | A5U C53A C88A C98A U109A | -5.9
165 | A5U G36C G48U C85U | -2.32
166 | A5U U9A U32C A37U C49U G69U G93A | -1.24
167 | A5C G71C C89U G117U U131C | -5.27
